Data taken from article PMC2212970.
Read-outs that look alike come from different tables or passages of the source.

Columns and labels:
Assay in all cases: EMSA
[1] = biological target: T1, SLPI (secretory leucoprotease inhibitor) (UniProt P03973 26-132)
[2] = biological target: T1, SLPI (secretory leucoprotease inhibitor); remark: listed apart in the source
[3] = biological target: NF-kB p65 (UniProt Q04206 1-551)
Chain of NF-kB p65 (Q04206 whole entry): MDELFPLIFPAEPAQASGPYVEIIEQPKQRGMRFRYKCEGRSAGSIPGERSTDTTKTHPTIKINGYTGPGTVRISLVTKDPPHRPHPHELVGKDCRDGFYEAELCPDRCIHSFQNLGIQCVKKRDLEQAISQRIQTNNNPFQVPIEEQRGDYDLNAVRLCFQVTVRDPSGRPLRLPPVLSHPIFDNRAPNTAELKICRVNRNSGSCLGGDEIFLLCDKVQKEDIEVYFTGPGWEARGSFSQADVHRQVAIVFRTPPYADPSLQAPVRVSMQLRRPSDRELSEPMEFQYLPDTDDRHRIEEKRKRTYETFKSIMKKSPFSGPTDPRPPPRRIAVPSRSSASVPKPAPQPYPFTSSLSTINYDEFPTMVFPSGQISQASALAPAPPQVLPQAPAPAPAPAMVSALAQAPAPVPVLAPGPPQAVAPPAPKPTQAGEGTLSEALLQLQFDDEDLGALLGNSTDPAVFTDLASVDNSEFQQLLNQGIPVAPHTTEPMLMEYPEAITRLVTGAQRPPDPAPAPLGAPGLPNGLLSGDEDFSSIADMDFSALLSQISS

T1 sequence (P03973 26-132): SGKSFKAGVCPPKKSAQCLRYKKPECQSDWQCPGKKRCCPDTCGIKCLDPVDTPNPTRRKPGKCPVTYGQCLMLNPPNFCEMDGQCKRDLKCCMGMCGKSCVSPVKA

Binder | binding result [1] | binding result [2] | binding result [3]
CREB consensus (dsDNA) DNA 1: AGAGATTGCCTGACGTCAGACAGCTAG DNA 2: CTAGCTGTCTGACGTCAGGCAATCTCT | no binding | – | –
Sp-1 consensus (dsDNA) DNA 1: ATTCGATCGGGCGGGGCGAG DNA 2: CTCGCCCCGCCCGATCGAAT | no binding | – | –
AP-1 consensus (dsDNA) DNA 1: CGCTTGATGAGTCAGCCGGAA DNA 2: TTCCGGCTGACTCATCAAGCG | binds | – | –
NF-kB consensus WT (dsDNA) DNA 1: AGTTGAGGGGACTTTCCCAGGC DNA 2: GCCTGGGAAAGTCCCCTCAACT | – | binds | binds
GATA-1 consensus (dsDNA) DNA 1: AATTGGACCGTATCTCCC DNA 2: GGGAGATACGGTCCAATT | no binding | – | –
